Source: US6328728A, “Composition and method for enhancing electrotransport agent delivery” (Alza Corporation, priority 1997, dated 2001)

Assay: Hydrophobicity by hydrophobic interaction chromatography (HIC), phenyl Superose column (retention time, ta/tm)
Assay type: physicochemical
Settings: for HIC Retention Time / HIC Column Retention Time: 32° C.; for HIC Column Retention Time: pH 5.0, 4 mM piperazine-HCl
Description: The hydrophobicity of an agent (eg, an agent such as a polypeptide or protein in solution, as well as the relative increase or decrease thereof) is determined by passing the agent-containing solution through a chromatography column filled with a particular "hydrophobic interaction" bead material and measuring either (1) the time required for the agent to elute (ie, pass through) the column or (2) the volume of liquid (ie, the same liquid used in the agent-containing sample, but with the agent removed) required to be pumped through the column in order to elute the agent. For the purposes of the present invention, the hydrophobicity of an agent is defined in terms relative to the marker compound, N-acetyl tryptophanamide (sold by Sigma Chemical, St. Louis, Mo.), which has a somewhat moderate hydrophobicity. Hydrophobicity, as that term is used herein, is measured using a 5 mm diameter glass column having a length of 5 cm (ie, column volume of 1.0 mL) and packed with cross-linked agar beads having an average particle size of 13.5 μm. Examples of suitable hydrophobic bead materials include cross-linked agar gel beads (Superose 12) having hydrophobic ligands attached to the agar via chemically stable ether linkages ((Superose 12)--O--CH2 --CHOH--CH2 --O--R) such as alkyl-Superose wherein R is --CH2 --C(CH3)3 and phenyl-Superose wherein R is phenyl, both of which are sold in pre-packaged column form by Pharmacia Biotech, Inc. of Piscataway, N.J. Immediately downstream from the column is placed a flow cell which permits continuous UV absorbance measurements of the solution flowing out of the column. Suitable flow cells and UV absorbance detectors are sold by Perkin-Elmer Corp., Applied Biosystems, Foster City, Calif. Hydrophobicity measurements are conducted at 32° C. with the same buffer that is used in the electrotransport system which is used to deliver the agent (eg, transdermally) to the patient. The buffer strength used in the hydrophobicity measurements is 10 mM ionic strength. The term "certain hydrophobicity" as used herein, means that the time required for the agent to elute from the column, relative to the time required for N-acetyl tryptophanamide to elute, is as follows:
ta /tm >0.7, and preferably ta /tm >3
ta is the time at which the peak UV absorbance value is recorded for the beneficial agent in the flow cell, less the time required to initially fill the column with the agent-containing solution (ie, dead volume retention time); and
tm is the time at which the peak UV absorbance value is recorded for the N-acetyl tryptophanamide marker in the flow cell, less the time required to initially fill the column with the marker-containing solution (ie, dead volume retention time).
The above described measurement of agent hydrophobicity is substantially independent of column size and flow rate through the column.
One method of measuring the hydrophobicity of an agent such as a polypeptide or protein is by hydrophobic interaction chromatography (HIC). The principles and conditions associated with HIC are fully described in Protein Purification: Principles, High Resolution Methods, and Applications, Janson and Ryden, Eds., pp. 207-226 (1989), the pertinent portions of which are incorporated herein by reference. This method requires passing a composition through a hydrophobic interaction column and measuring the volume of solvent required for its complete elution. The hydrophobic sites on the agent are generally attracted to hydrophobic groups, such as aryl groups, affixed to beads placed within the column. A preferred HIC column material is phenyl-superose (Pharmacia, Sweden), a cross-linked polysaccharide which has been covalently modified to have pendant hydrophobic aryl groups. These pendant groups are similar to the hydrophobic or lipophilic species in the skin layers. Thus, this hydrophobic interaction column approximates, and is a good in vitro model for, an animal's skin layer as a barrier to transport of a polypeptide or protein. […]

[1] = pH 3.5, 10 mM sodium chloroacetate, TWEEN 20 0
[2] = pH 3.5, 10 mM sodium chloroacetate, TWEEN 20 1.5 mg/mL
[3] = pH 3.5, 10 mM sodium chloroacetate, TWEEN 20 2.66 mM
[4] = pH 3.5, 10 mM sodium chloroacetate, TWEEN 20 5.33 mM
[5] = pH 3.5, 10 mM sodium chloroacetate, TWEEN 20 6.66 mM
[6] = pH 3.5, 10 mM sodium chloroacetate, TWEEN 20 8.88 mM
[7] = pH 9.0, 10 mM sodium borate, TWEEN 20 0
[8] = pH 9.0, 10 mM sodium borate, TWEEN 20 1.5 mg/mL
[9] = pH 9.0, 10 mM sodium borate, TWEEN 20 2.66 mM
[10] = pH 9.0, 10 mM sodium borate, TWEEN 20 6.0 mg/mL
[11] = pH 9.0, 10 mM sodium borate, TWEEN 20 8.88 mM

For “Insulinotropin: the protein insulinotropin”, the “HIC Retention Time” value [1] was 57.6 min, the “HIC Retention Time” value [2] was 25.6 min and the “HIC Retention Time” value [3] was 11.5 min. For the same substance, the “HIC Retention Time” value [4] was 6.1 min, the “HIC Retention Time” value [5] was 6.0 min and the “HIC Retention Time” value [6] was 4.4 min. For the same substance, the “HIC Retention Time, fractional change (% δ)” value [1] was 0, the “HIC Retention Time, fractional change (% δ)” value [2] was 0.60 and the “HIC Retention Time, fractional change (% δ)” value [3] was 0.87. For the same substance, the “HIC Retention Time, fractional change (% δ)” value [4] was 0.97, the “HIC Retention Time, fractional change (% δ)” value [5] was 0.97 and the “HIC Retention Time, fractional change (% δ)” value [6] was 1.00. The “HIC Retention Time” value [7] was 10.1 min, the “HIC Retention Time” value [8] was 9.4 min and the “HIC Retention Time” value [9] was 6.4 min. For the same substance, the “HIC Retention Time” value [10] was 4.8 min, the “HIC Retention Time” value [11] was 3.8 min and the “HIC Retention Time, fractional change (% δ)” value [7] was 0. The “HIC Retention Time, fractional change (% δ)” value [8] was 0.11, the “HIC Retention Time, fractional change (% δ)” value [9] was 0.59 and the “HIC Retention Time, fractional change (% δ)” value [10] was 0.84. For the same substance, the “HIC Retention Time, fractional change (% δ)” value [11] was 1.00.
For Salmon Calcitonin [reference compound], the “HIC Column Retention Time” value (dodecyl sulfobetaine 0, calcitonin 0.076 mM) was 9.4 min, the “HIC Column Retention Time” value (dodecyl sulfobetaine 0.83 mM, calcitonin 0.076 mM) was 12.4 min and the “HIC Column Retention Time” value (dodecyl sulfobetaine 3.23 mM, calcitonin 0.074 mM) was 87.1 min. The “HIC Column Retention Time” value (dodecyl sulfobetaine 6.25 mM, calcitonin 0.072 mM) was 64.1 min, the “HIC Column Retention Time” value (dodecyl sulfobetaine 9.77 mM, calcitonin 0.069 mM) was 45.1 min and the “HIC Column Retention Time” value (dodecyl sulfobetaine 18.4 mM, calcitonin 0.062 mM) was 28.8 min. The “HIC Column Retention Time” value (dodecyl sulfobetaine 26.4 mM, calcitonin 0.056 mM) was 24.4 min.
